# Assay results as given in patent US20140274782A1, “AFFINITY REAGENTS AND METHODS FOR DETECTION, PURIFICATION, AND PROTEOMIC ANALYSIS OF METHYLATED PROTEINS” (The Board of Trustees of the Leland Stanford Junior …, priority 2013, published 2014).
# T1: G9a and GLP (Homo sapiens, UniProt Q96KQ7+Q9H9B1)
# T1 sequence (Q96KQ7 2-1210 limits assumed): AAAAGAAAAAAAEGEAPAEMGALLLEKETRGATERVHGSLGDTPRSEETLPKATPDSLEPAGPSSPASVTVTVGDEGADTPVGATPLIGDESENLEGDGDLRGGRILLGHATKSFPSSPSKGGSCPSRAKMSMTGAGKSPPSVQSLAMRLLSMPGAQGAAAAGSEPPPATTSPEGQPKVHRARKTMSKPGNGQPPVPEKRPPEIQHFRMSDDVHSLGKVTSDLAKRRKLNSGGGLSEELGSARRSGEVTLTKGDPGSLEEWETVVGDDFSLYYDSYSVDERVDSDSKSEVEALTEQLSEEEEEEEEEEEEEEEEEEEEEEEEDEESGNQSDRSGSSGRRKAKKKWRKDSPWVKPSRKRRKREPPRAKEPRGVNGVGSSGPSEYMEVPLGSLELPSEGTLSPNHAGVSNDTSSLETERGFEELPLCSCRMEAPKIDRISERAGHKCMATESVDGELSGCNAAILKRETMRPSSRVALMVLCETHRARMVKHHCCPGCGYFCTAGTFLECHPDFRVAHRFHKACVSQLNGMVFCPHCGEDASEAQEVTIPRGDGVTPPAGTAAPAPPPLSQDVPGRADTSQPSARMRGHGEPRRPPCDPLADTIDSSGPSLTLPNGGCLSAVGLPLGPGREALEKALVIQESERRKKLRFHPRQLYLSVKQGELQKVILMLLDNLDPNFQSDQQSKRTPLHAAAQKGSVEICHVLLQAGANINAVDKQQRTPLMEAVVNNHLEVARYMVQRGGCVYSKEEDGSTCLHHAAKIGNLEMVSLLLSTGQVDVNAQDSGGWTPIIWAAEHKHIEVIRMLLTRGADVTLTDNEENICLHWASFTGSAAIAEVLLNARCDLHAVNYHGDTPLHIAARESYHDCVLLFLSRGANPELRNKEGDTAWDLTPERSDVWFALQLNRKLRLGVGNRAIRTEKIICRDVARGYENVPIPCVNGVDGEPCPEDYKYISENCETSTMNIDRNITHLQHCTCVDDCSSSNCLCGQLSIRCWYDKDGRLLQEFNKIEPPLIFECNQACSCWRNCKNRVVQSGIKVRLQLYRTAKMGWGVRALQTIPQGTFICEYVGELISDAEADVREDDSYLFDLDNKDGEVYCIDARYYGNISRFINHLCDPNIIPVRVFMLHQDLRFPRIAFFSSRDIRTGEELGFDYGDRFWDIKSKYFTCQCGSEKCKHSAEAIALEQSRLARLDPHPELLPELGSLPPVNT
# T1 sequence (Q9H9B1 2-1298 limits assumed): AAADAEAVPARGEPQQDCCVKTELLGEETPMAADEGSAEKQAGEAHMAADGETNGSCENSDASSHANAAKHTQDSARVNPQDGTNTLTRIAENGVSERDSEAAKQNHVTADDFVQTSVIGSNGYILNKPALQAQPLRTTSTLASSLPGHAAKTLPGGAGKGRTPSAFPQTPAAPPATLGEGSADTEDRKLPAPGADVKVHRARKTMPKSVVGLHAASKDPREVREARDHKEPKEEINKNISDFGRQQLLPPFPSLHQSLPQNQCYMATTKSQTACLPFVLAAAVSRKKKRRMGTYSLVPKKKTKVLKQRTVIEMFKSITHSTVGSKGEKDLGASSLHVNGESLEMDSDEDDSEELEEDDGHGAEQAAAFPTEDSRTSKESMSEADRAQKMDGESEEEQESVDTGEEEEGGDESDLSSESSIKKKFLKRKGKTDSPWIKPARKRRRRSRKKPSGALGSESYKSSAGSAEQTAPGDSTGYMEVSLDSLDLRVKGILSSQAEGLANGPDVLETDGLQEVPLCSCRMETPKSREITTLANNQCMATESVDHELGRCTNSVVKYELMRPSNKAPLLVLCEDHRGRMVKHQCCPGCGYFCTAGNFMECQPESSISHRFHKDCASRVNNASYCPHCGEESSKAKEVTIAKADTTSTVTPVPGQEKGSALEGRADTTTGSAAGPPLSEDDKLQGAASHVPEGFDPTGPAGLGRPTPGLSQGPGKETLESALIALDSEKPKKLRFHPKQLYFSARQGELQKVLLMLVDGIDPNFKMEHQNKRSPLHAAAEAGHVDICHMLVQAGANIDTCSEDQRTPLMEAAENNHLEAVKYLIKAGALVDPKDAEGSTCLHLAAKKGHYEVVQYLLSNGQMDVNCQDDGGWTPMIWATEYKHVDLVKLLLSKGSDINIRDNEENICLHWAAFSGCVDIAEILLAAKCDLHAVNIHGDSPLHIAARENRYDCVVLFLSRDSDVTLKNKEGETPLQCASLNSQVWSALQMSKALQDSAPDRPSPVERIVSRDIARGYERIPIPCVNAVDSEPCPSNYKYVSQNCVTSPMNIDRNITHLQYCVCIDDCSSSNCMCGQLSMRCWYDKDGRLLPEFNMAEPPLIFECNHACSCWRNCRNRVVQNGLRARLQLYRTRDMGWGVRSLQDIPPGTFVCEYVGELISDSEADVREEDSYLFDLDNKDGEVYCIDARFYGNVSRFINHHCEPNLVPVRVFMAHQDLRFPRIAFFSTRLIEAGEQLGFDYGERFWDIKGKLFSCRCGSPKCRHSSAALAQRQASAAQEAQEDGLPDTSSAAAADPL
# Key:
# [1] = test system: 3×MBT domain of L3MBTL1; assay: Triple SILAC pull-down, 3xMBT/3xMBTD355N ratio (cytoplasmic, nuclear and chromatin fractions of 293T cells); assay type: binding, human; conditions: SILAC ratio 3xMBT vs 3xMBTD355N pull-down, 293T cells, all values in log base 2; for 3xMBT/D355N UNC Heavy: experiment with UNC0638 in heavy SILAC media; for 3xMBT/D355N UNC Light: experiment with UNC0638 in light SILAC media;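 as to all read-outs here: proteins quantified with MaxQuant, requiring at least two unique peptides and quantification in both label directions, normalized to the mean of proteins from a digested loading control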
# [2] = biological target: T1, G9a and GLP; assay: Triple SILAC pull-down after UNC0638 treatment of 293T cells, DMSO/UNC0638 ratio of protein captured by 3×MBT; assay type: cell-based; set-up: endogenous in cells; host or cells: HEK 293T; conditions: all values in log base 2; for Relative to UNC0638 UNC Heavy / Relative to UNC0638 UNC Light: SILAC ratio DMSO relative to UNC0638, pull-down with 3xMBT; for Relative to UNC0638 UNC Heavy: UNC0638 in heavy SILAC media; for Relative to UNC0638 UNC Light: UNC0638 in light SILAC media; for Relative to UNC0638 Average: average of UNC Light and UNC Heavy experiments;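 as to all read-outs here: mass spectrometry (Q-Exactive) SILAC quantitation, DMSO/UNC0638 ratio computed after subtracting 3×MBTD355N mutant pull-down background, only proteins with at least twofold 3×MBT over mutant signal considered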
Molecule,3xMBT/D355N UNC Heavy [1] [log base 2],3xMBT/D355N UNC Light [1] [log base 2],Relative to UNC0638 UNC Heavy [2] [log base 2],Relative to UNC0638 UNC Light [2] [log base 2],Relative to UNC0638 Average [2] [log base 2]
"MARS (protein, UniProt P56192 1-900, looked up) Methionine--tRNA ligase, …: MRLFVSDGVPGCLPVLAAAGRARGRAEVLISTVGPEDCVVPFLTRPKVPVLQLDSGNYLFSTSAICRYFFLLSGWEQDDLTNQWLEWEATELQPALSAALYYLVVQGKKGEDVLGSVRRALTHIDHSLSRQNCPFLAGETESLADIVLWGALYPLLQDPAYLPEELSALHSWFQTLSTQEPCQRAAETVLKQQGVLALRPYLQKQPQPSPAEGRAVTNEPEEEELATLSEEEIAMAVTAWEKGLESLPPLRPQQNPVLPVAGERNVLITSALPYVNNVPHLGNIIGCVLSADVFARYSRLRQWNTLYLCGTDEYGTATETKALEEGLTPQEICDKYHIIHADIYRWFNISFDIFGRTTTPQQTKITQDIFQQLLKRGFVLQDTVEQLRCEHCARFLADRFVEGVCPFCGYEEARGDQCDKCGKLINAVELKKPQCKVCRSCPVVQSSQHLFLDLPKLEKRLEEWLGRTLPGSDWTPNAQFITRSWLRDGLKPRCITRDLKWGTPVPLEGFEDKVFYVWFDATIGYLSITANYTDQWERWWKNPEQVDLYQFMAKDNVPFHSLVFPCSALGAEDNYTLVSHLIATEYLNYEDGKFSKSRGVGVFGDMAQDTGIPADIWRFYLLYIRPEGQDSAFSWTDLLLKNNSELLNNLGNFINRAGMFVSKFFGGYVPEMVLTPDDQRLLAHVTLELQHYHQLLEKVRIRDALRSILTISRHGNQYIQVNEPWKRIKGSEADRQRAGTVTGLAVNIAALLSVMLQPYMPTVSATIQAQLQLPPPACSILLTNFLCTLPAGHQIGTVSPLFQKLENDQIESLRQRFGGGQAKTSPKPAVVETVTTAKPQQIQALMDEVTKQGNIVRELKAQKADKNEVAAEVAKLLDLKKQLAVAEGKPPEAPKGKKKK",1.87,1.56,0.15,−0.08,0.03
"DNAJC9 (protein, UniProt Q8WXX5 1-260, looked up) DnaJ homolog subfamily C …: MGLLDLCEEVFGTADLYRVLGVRREASDGEVRRGYHKVSLQVHPDRVGEGDKEDATRRFQILGKVYSVLSDREQRAVYDEQGTVDEDSPVLTQDRDWEAYWRLLFKKISLEDIQAFEKTYKGSEEELADIKQAYLDFKGDMDQIMESVLCVQYTEEPRIRNIIQQAIDAGEVPSYNAFVKESKQKMNARKRRAQEEAKEAEMSRKELGLDEGVDSLKAAIQSRQKDRQKEMDNFLAQMEAKYCKSSKGGGKKSALKKEKK",2.56,1.85,0.09,−0.02,0.04
"RAD21 (protein, UniProt O60216 1-631, looked up) Double-strand-break repair …: MFYAHFVLSKRGPLAKIWLAAHWDKKLTKAHVFECNLESSVESIISPKVKMALRTSGHLLLGVVRIYHRKAKYLLADCNEAFIKIKMAFRPGVVDLPEENREAAYNAITLPEEFHDFDQPLPDLDDIDVAQQFSLNQSRVEEITMREEVGNISILQENDFGDFGMDDREIMREGSAFEDDDMLVSTTTSNLLLESEQSTSNLNEKINHLEYEDQYKDDNFGEGNDGGILDDKLISNNDGGIFDDPPALSEAGVMLPEQPAHDDMDEDDNVSMGGPDSPDSVDPVEPMPTMTDQTTLVPNEEEAFALEPIDITVKETKAKRKRKLIVDSVKELDSKTIRAQLSDYSDIVTTLDLAPPTKKLMMWKETGGVEKLFSLPAQPLWNNRLLKLFTRCLTPLVPEDLRKRRKGGEADNLDEFLKEFENPEVPREDQQQQHQQRDVIDEPIIEEPSRLQESVMEASRTNIDESAMPPPPPQGVKRKAGQIDPEPVMPPQQVEQMEIPPVELPPEEPPNICQLIPELELLPEKEKEKEKEKEDDEEEEDEDASGGDQDQEERRWNKRTQQMLHGLQRALAKTGAESISLLELCRNTNRKQAAAKFYSFLVLKKQQAIELTQEEPYSDIIATPGPRFHII",2.15,1.49,0.07,0.08,0.07
"PUF60 (protein, UniProt Q9UHX1 1-559, looked up) Poly(U)-binding-splicing …: MATATIALQVNGQQGGGSEPAAAAAVVAAGDKWKPPQGTDSIKMENGQSTAAKLGLPPLTPEQQEALQKAKKYAMEQSIKSVLVKQTIAHQQQQLTNLQMAAVTMGFGDPLSPLQSMAAQRQRALAIMCRVYVGSIYYELGEDTIRQAFAPFGPIKSIDMSWDSVTMKHKGFAFVEYEVPEAAQLALEQMNSVMLGGRNIKVGRPSNIGQAQPIIDQLAEEARAFNRIYVASVHQDLSDDDIKSVFEAFGKIKSCTLARDPTTGKHKGYGFIEYEKAQSSQDAVSSMNLFDLGGQYLRVGKAVTPPMPLLTPATPGGLPPAAAVAAAAATAKITAQEAVAGAAVLGTLGTPGLVSPALTLAQPLGTLPQAVMAAQAPGVITGVTPARPPIPVTIPSVGVVNPILASPPTLGLLEPKKEKEEEELFPESERPEMLSEQEHMSISGSSARHMVMQKLLRKQESTVMVLRNMVDPKDIDDDLEGEVTEECGKFGAVNRVIIYQEKQGEEEDAEIIVKIFVEFSIASETHKAIQALNGRWFAGRKVVAEVYDQERFDNSDLSA",1.71,2.61,0.03,0.07,0.05
